Values quoted from earlier work in PMC10298792.

Assays:
Bid BH3 (Homo sapiens) = Bid BH3 (Homo sapiens) (UniProt P55957); test: ITC
Pxt1 BH3 (Homo sapiens) = Pxt1 BH3 (Homo sapiens) (UniProt Q8NFP0); test: ITC
Pxt1 BH3 (Homo sapiens), sequence (Q8NFP0 76-101): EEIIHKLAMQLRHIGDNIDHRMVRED

Bcl-xL, sequence (Q07817 whole entry): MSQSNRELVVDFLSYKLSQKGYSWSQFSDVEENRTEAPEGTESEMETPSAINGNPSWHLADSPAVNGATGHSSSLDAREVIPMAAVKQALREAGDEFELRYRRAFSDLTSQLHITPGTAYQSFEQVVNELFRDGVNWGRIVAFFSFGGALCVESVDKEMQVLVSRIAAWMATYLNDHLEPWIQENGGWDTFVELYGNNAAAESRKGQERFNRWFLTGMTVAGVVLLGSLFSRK
Bak, sequence (Q16611 2-211): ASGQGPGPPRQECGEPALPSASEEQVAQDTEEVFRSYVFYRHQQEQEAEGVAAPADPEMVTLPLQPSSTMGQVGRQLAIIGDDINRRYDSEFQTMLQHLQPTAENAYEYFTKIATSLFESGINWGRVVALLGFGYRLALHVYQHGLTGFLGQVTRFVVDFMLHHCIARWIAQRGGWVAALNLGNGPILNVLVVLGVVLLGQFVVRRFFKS

Substance | Kd (Bid BH3 (Homo sapiens)) [nM] | Kd (Pxt1 BH3 (Homo sapiens)) [nM]
Bak (from UniProt Q16611) | 22700 | 
Bcl-xL (from UniProt Q07817) | 8.62 | 233
